The record followed here is the nanobody polyreactivity screen of Harvey et al. (2022).

The series can be described thus: yeast display, Sf9 membrane polyspecificity reagent, FACS + sequencing; frameworks hold sequencing errors. The method, boiled down:
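Using colony PCR, genes from sorted yeast display clones were amplified, then sequenced on MiSeq at 2 × 250 and filtered by CDR length. The clones had been stained with 10% biotinylated, detergent-solubilized Sf9 membrane reagent for 1 hour at 4 °C and sorted by FACS into low and high (top ~1%) gates on anti-HA and streptavidin fluorescence. Polyreactivity labels come from the gate of origin.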
Take “QVQLVESGGGLVQAGGSLRLSCAASGIIFPINAMGWYRPAPGKERELVAGIDESGGGTYYADSVKGRFTISRDNAKNTLYLQMNSLKPEDTAVYYCAAVTLAPRAYDYWGQGTEVTVSS”: the “polyreactivity (PSR sort gate)” value is on record as “low polyreactivity”.

As to “QVQLVETGVGLVQAGGSLRLSCAASGLTFPNYDMGWYRQAPGKEMELVAAISSSGGSTYYADSVKGRFTISRDNAKNTVYLQMNSLKPEDTAVYYCATEWSYYNYGYDYWGQGTQVTVSS”, the “polyreactivity (PSR sort gate)” value is on record as “low polyreactivity”. With “QVQLVESGGGLVQAGGSLRLSCAASGSIFYRYAMGWYRQAPGKERELVAAISFRTGSTYYADSVKGRFTISRDNAKNTVYFQMNSLKPEDTAVYYCAAEQLSTLRQRFDSWGQGTQVTVSS”, the “polyreactivity (PSR sort gate)” value is “high polyreactivity”. Under “QVQLVESGGGLVQAGGSLRLSCAASGRTFPGYAMGWYRQAPGKERELVASITSRGGITYYADSVKGRFTISRDNAKNTVYLQMNSLKPEDTAVYYCATDFAVTKMEYWGQGTQVTVSS” stands “low polyreactivity”; under “QVQLVESGGGLVQAGGSLRLSCAASGSTFTYYSMGWDRQAPGKERELVAAISSNGGSTSYADSVKGRFTISRDNAKNTVYLQMNSLKPEDTAVYYCAAQVPLFGRYYWGQGTQVTVSS”, “high polyreactivity”. “QVQLVESGGGLVQAGSSLRLSCAASGRTLIYNAMGWYRQAPGKERELVASINRRGDSTYYADSVKGRFTISRDNAKNTVYLQMNSLKPEDTAVYYCAKVLYGGYPENRYFVGWGRDYWGQGTQVTVSS”: the “polyreactivity (PSR sort gate)” value is “high polyreactivity”. Turning to “QVQLVESGGGLVQAGGSLRLSCDASGFIFTGNVMGWYRQAPGKERELVAGITYTSGSTYYADSVKGRFTISRDYAKNTVYLQMNSLKPEDTAVYYCAAEITRHYVFGDDYWGQGTQVTVSS”, the “polyreactivity (PSR sort gate)” value is reported as “low polyreactivity”. For “QVQLVESGGGLVQAGGSLRLSCAASGPTFFLYDMGWYRQAPGKERELVAAITSSGGDTYYADSVKGRFTISRDNAKNTVYLQMNSLKPEDTAVYYCAAEVWFPDRWMDYWGQGTQVTVSS”, the “polyreactivity (PSR sort gate)” value is recorded as “high polyreactivity”. Under “QVQLVESGGGLVQAGGSLRLSCAASGFIFRYYAMGWYRQAPGKERELVAAISYSGGSTYYADSVKGRFTISRDTAKNTVYLQMNSLKPEDTAVYYCAAVLRTRDHPQPNYVYWGQGTQVTVSS” stands “high polyreactivity”; under “QVQLVESGGGLVQAGGSLRLSCSASGITFLHYAMGWYIQAPGKERELVARITYSGSSTYYADSVKGRFTISRDNAKNTVYLQMNSLKPEDTAVYYCNASASWGRWSRTGTPRYYYWGQGTQVTVSS”, “high polyreactivity”. With “QVQLVESGGGLVQAGVRLRLSCADSGSTFYLNAIGWYRQAPGKERELVAAITRVGRTYYADSVKGRFTISRDNAKNTVYLQMNSLKPEDTAVYYCNALGHYKLWGLGTQVTVSS” the entry was “high polyreactivity”; with “QVQLVESGAGLVQAGGSLRLSCAASGFIFRQYAMGWYRQAPGQERELVAAISWSGGSTYYADSVKGRFTISRDNAKNTVYLQKNSLKPEDTAVYYCNVLTPPTDYDYWGQGTQVTVSS”, “high polyreactivity”; with “QVQLVESGGGVVQAGGSLRLSCAASGSTFYSYAMGWYRPAPGKERELVAAISWDGGRTYYADSVKGRFTISRDNAQNTVYLQMNSMKPEDTAVYYCAARKGELWFPQGGYNYSGQGTQVTVSS”, “low polyreactivity”.

For the sequence “QVQLVESGGGLVQARVSLRLSCPASGRIFARYALGSSRQAPGTEREFVAAISRGGSTKYADSEKGRFTISRDNAKNTVYLQMNSLKPEDTAVYYCARQLWGSAYGAYYAGDYWGQGTQVTVSS”, the “polyreactivity (PSR sort gate)” value is “low polyreactivity”. Consider “QVQLVETGGGLVQAGGSLRLSCAASGITFFRNAMGWYRQAPGKERELVAAISRGGGSTYYADSVKGRFTISRDNAKKTVYLQMNSLKPEDTAVYYCAEYKYGTGVKMDYWGQGTQVTVSS”, for which the “polyreactivity (PSR sort gate)” value was “high polyreactivity”. With “KVQLVESGAGLVQAGGSLRLSCAASGITFVRYVMGWYRQAPGKERELVAAISNSGGRTYYADSVKGRFTISRDNAKNTVYLQMNSLKPEDTAVYYCARRAGSYPYGYTGYDYWGQGTLVTVSS” the entry was “high polyreactivity”; with “QVHLVESGGGLVQARGSLRLSCAASGSTIYSYARGWYRQAPGKERELVAAINRSAGSTYYADSVKGRFTISRDNAKNTVYLQMTSLKPEDTAVYYCAAYASRSYGDWGQGTQVTVSS”, “high polyreactivity”.

As to “QVQLVESGGGLVQAGGSLRLSCAASGITFVTYAMGWYRQAPGKERELVAAISRSGGRTYYADSVKGRFTISRDNAKNTVYLQMNSLKPEDTAVYYCAAERKNKYDYWGQGTQVTVSS”, the “polyreactivity (PSR sort gate)” value is on record as “high polyreactivity”. With “QVQLVESGGGLVQAGGSLRLSCAASGRTFPIYAMGWYRQAPGKERELVAAITYSGGSTYYADSVKGRFTISRDNAKNTVYLQMNSLKPEDTAVYYCAVDGTKPYWHQRYDYWGQGTQVTVSS” the entry was “low polyreactivity”. With “QVQLVESGGGLVQAGGSLRLSCAASGIIFVIYAMVWYRQAPGKERELVAAISSSGGSTYYADSVKGRFTISRDNAKNTVYLLMNSLKPEDTAVYYCAVALSHYFGGYGYWGQGTQLTVSS” the entry was “low polyreactivity”; with “QVQLVESGGGLVQAGGSLRLSCAASGFILYFNAMGWYRQAPGKDRELVAVISCTGVRTNYADSVKGRFTISRDNAKNTVYLQMNSLKPEDTAVYYCAAGYYSYRPRDYWGQGTQVTVSS”, “low polyreactivity”. Consider “QVQLVESGGGLVQAGGSVRLSCAASGSIFQYNTMGWYRQAPGKDRELFADINGRGGSTYYADSVKGRFTISRDNAKNTVYLQMNSLKPEDTGVYYCNARVFGGYSKYLFIGRYYWGQGTQVTVSS”, for which the “polyreactivity (PSR sort gate)” value was “low polyreactivity”.

For the sequence “QVQLVESGGGLVQAGGSLRLSCAAFGFTFNSYAMGWNRQAPGKERELVAGITSSGGGTYYADSVKGRFTISRDNAKNTVYLQMNSLKPEDTAVYYCNTYSYLFSRYGFWGQGTQVTVSS”, the “polyreactivity (PSR sort gate)” value was “high polyreactivity”. With “QVQLVESGGGLVQAGGSLRLSCAASGSTFIWNAMGWYRQAPRKERELVATITYSGGSTYYADSVKGRFTISRDNAKNTVYLQMNSLKPEDTAVYYCATDATIPKCYTYPGEMDYWGQGTQVTVSS” the entry was “low polyreactivity”. With “QVQLVESGGVLFQAGGSLSLSCAASGLTFPRYAMGWYRQAPGKESELDAAISYRGSRTYYADSVKGRFTISRDNAKNTVYLQMNSLKPEDTAVYYCNKVRPGYGVTYLVGYWGQGTQVTVSS” the entry was “high polyreactivity”; with “QVQLVESCGGLVQAGGSLRLSCAGSGITIYSYAMGWYRQAPGKERELVAAITLTGGTTYYADSVKGRFTISRDNAKNTVYLQMNSLKPEDTAVYYCNADYGGGVDGTYKYYSEYDYWGQGTQVTVSS”, “low polyreactivity”. With “QVQLVESGGGLFQAGGSLRLSCAASGSTFGWYGMGWYRHAPGKERELVAAISLSDGGTYYADSVKGRFTISRDNAKNTVYLQMNSLKPEDTAVYYCAADYYDSGWYGYWGQGTQVTVSS” the entry was “high polyreactivity”. “QVQLVESGGGLVQAGGSLRLSCAASGFTFGSYAMGWYIQAPGKERELVARISSDGSTNYADSVKGRFTISRDNAKNTVYLQMNSLKPEDTAVYYSARDRKRQADDIGEFDYWGQGTQVTVSS”: the “polyreactivity (PSR sort gate)” value is recorded as “low polyreactivity”. Under “QVQLVESGGGLVQAGGSLRLSCAASGIIFGQNAMGWSRQSPGKESEVVAAITISGGSTYYADSVKGRFTISRDNAKNTVYLQMNSLKPEDTAVYYCAARRVTWKVIARGYRYGYWGQGTQVTVSS” stands “low polyreactivity”. With “QVQLQESVVGLEQAGGSLRLSCAASGNIFPTDRMGWYRQAPGKELEFVATISHGGSTNYADSVKGRFTISRVNAKNTVYLQLNSLKPEDTAVYYCAVWSLGRWRHYYWGQGTQVTVSS” the entry was “low polyreactivity”.
